{"source": "patent US20250213707A1", "about": "“COMPOUND FOR INCREASING EFFICACY OF ONCOLYTIC VIRUSES” (ABLEVIA BIOTECH GMBH, priority 2022, published 2025)"}
{"biological_target": "Polyclonal antibody ab6982 (Abcam)", "assay": "cyclic peptide microarray, fiber peptides", "units": {"rank of binding signal": "rank"}}
{"substance": "AHLIIRF (peptide)", "rank of binding signal": 6}
{"substance": "AQNQLNI (peptide)", "rank of binding signal": 172}
{"substance": "ARPSEDT (peptide)", "rank of binding signal": 41}
{"substance": "ATSSYTF (peptide)", "rank of binding signal": 80}
{"substance": "AYSMSFS (peptide)", "rank of binding signal": 167}
{"substance": "DPEYWNE (peptide)", "rank of binding signal": 53}
{"substance": "DTFNPVY (peptide)", "rank of binding signal": 130}
{"substance": "EYWNFRN (peptide)", "rank of binding signal": 113}
{"substance": "FLDPEYW (peptide)", "rank of binding signal": 50}
{"substance": "FSWDWSG (peptide)", "rank of binding signal": 186}
{"substance": "FVSPNG (peptide)", "rank of binding signal": 13}
{"substance": "GQGPLFI (peptide)", "rank of binding signal": 58}
{"substance": "HLIIRFD (peptide)", "rank of binding signal": 60}
{"substance": "HNLDINY (peptide)", "rank of binding signal": 9}
{"substance": "IFATSSY (peptide)", "rank of binding signal": 104}
{"substance": "LGQGPLF (peptide)", "rank of binding signal": 27}
{"substance": "LGTGLSF (peptide)", "rank of binding signal": 44}
{"substance": "LNLRLGQ (peptide)", "rank of binding signal": 173}
{"substance": "LNNSFLD (peptide)", "rank of binding signal": 180}
{"substance": "MSFSWDW (peptide)", "rank of binding signal": 22}
{"substance": "NKGLYLF (peptide)", "rank of binding signal": 20}
{"substance": "NQLNLRL (peptide)", "rank of binding signal": 72}
{"substance": "NYINEIF (peptide)", "rank of binding signal": 16}
{"substance": "PELTPPF (peptide)", "rank of binding signal": 47}
{"substance": "PEYWNFR (peptide)", "rank of binding signal": 31}
{"substance": "QGPLFIN (peptide)", "rank of binding signal": 93}
{"substance": "QLNLRLG (peptide)", "rank of binding signal": 136}
{"substance": "QNQLNLR (peptide)", "rank of binding signal": 82}
{"substance": "QSAHLII (peptide)", "rank of binding signal": 126}
{"substance": "RPSEDTF (peptide)", "rank of binding signal": 24}
{"substance": "SAHLIIR (peptide)", "rank of binding signal": 65}
{"substance": "SAYSMSF (peptide)", "rank of binding signal": 108}
{"substance": "SFSWDWS (peptide)", "rank of binding signal": 100}
{"substance": "SMSFSWD (peptide)", "rank of binding signal": 144}
{"substance": "SSYTFSY (peptide)", "rank of binding signal": 42}
{"substance": "SWDWSGH (peptide)", "rank of binding signal": 193}
{"substance": "SYTFSYI (peptide)", "rank of binding signal": 64}
{"substance": "YINEIFA (peptide)", "rank of binding signal": 168}
{"substance": "YSMSFSW (peptide)", "rank of binding signal": 8}
{"substance": "YTESYIA (peptide)", "rank of binding signal": 181}
{"biological_target": "Polyclonal antibody ab6982 (Abcam)", "assay": "cyclic peptide microarray, hexon peptides", "units": {"rank of binding signal": "rank"}}
{"substance": "ALEINLE (peptide)", "rank of binding signal": 33}
{"substance": "DDDNEDE (peptide)", "rank of binding signal": 96}
{"substance": "DDNEDEV (peptide)", "rank of binding signal": 78}
{"substance": "DEVDEQA (peptide)", "rank of binding signal": 10}
{"substance": "DIETPDT (peptide)", "rank of binding signal": 62}
{"substance": "DRMYSFF (peptide)", "rank of binding signal": 86}
{"substance": "EDDDNED (peptide)", "rank of binding signal": 63}
{"substance": "EDEVDEQ (peptide)", "rank of binding signal": 126}
{"substance": "EEDDDNE (peptide)", "rank of binding signal": 108}
{"substance": "EINLEEE (peptide)", "rank of binding signal": 6}
{"substance": "ETPDTHI (peptide)", "rank of binding signal": 51}
{"substance": "EVDEQAE (peptide)", "rank of binding signal": 17}
{"substance": "GDRTRYF (peptide)", "rank of binding signal": 80}
{"substance": "IETPDTH (peptide)", "rank of binding signal": 45}
{"substance": "IGYQGFY (peptide)", "rank of binding signal": 136}
{"substance": "INLEEED (peptide)", "rank of binding signal": 32}
{"substance": "KDRMYSF (peptide)", "rank of binding signal": 143}
{"substance": "LEINLEE (peptide)", "rank of binding signal": 4}
{"substance": "NIGYQGF (peptide)", "rank of binding signal": 187}
{"substance": "NLEEEDD (peptide)", "rank of binding signal": 65}
{"substance": "TRYFSMW (peptide)", "rank of binding signal": 73}
{"substance": "VDEQAEQ (peptide)", "rank of binding signal": 20}
{"substance": "YSFFRNF (peptide)", "rank of binding signal": 104}
